According to article PMC4865801:

Binder KKLITFILKKTREK [β4-peptide] has a cells with resurgent currents (whole-cell patch clamp, 100 µM β4-peptide in the pipette, 50 nM ATX-II in the bath) (out of 15 cells) (hNav1.7/ΔL955 (human)) of 1, a share of cells with resurgent currents (whole-cell patch clamp, 100 µM β4-peptide in the pipette, 50 nM ATX-II in the bath) (hNav1.7/V948C (human)) of 55% and a share of cells with resurgent currents (whole-cell patch clamp, 100 µM β4-peptide in the pipette, 50 nM ATX-II in the bath) (hNav1.7 WT (human)) of 42%.
